In the assay the target is Hsp90α ATP-binding-deficient mutant Hsp90(D93N) (human, UniProt P07900 1-732, D93N). Put plainly: cryo-EM structure.

B1: MBP–GRLBD(520–777) (F602S) (domain or fragment, UniProt P04150 520-777, looked up)
chain: IVPATLPQLTPTLVSLLEVIEPEVLYAGYDSSVPDSTWRIMTTLNMLGGRQVIAAVKWAKAIPGFRNLHLDDQMTLLQYSWMSLMAFALGWRSYRQSSANLLCFAPDLIINEQRMTLPCMYDQCKHMLYVSSELHRLQVSYEEYLCMKTLLLLSSVPKDGLKSQELFDEIRMTYIKELGKAIVKREGNSSQNWQRFYQLTKLLDSMHEVVENLLNYCFQTFLDKTMSIEFPEMLAEIITNQIPKYSNGNIKKLLFHQK
As to B1, the binding result was “binds”.

The values above are taken from PMC9179170 (Nature, 2021).
